For two molecules, Kd results are on record in US20150157741A1 (published 2015).

Ends that are not written are not given here.

The test concerns the target T1, Recombinant Human ErbB2/Fc Chimera (produced by R&D Systems) (human, UniProt P04626 23-652).
T1 construct: Bought reagent; Immobilised by amine coupling on a GLM chip, about 3,000 RU; also called HER2; Fc part of the bought chimera not given
The test can be described thus: SPR (ProteOn XPR36), ErbB2/Fc amine-coupled on GLM chip, conjugate injected, 1:1 Langmuir fit. Here is the method: The bonding property of the PEG including the capture molecule to HER2 serving as a target molecule was evaluated by a surface plasmon resonance method (SPR). In SPR, the measurement was performed using Proteon (registered trademark) XPR36 (produced by Bio-Rad Laboratories). Recombinant Human ErbB2/Fc Chimera (produced by R&D Systems) was dissolved into an acetate buffer (pH 5.0), and was immobilized by amine coupling to a carboxyl group on the GLM sensor chip surface. The amount of immobilization was about 3,000 RU (Resonance Unit). Subsequently, the PEG including the capture molecule was diluted to various concentrations with a phosphate buffer (pH 7.4) containing 0.005% of Tween20 and was injected into a flow cell at a flow rate of 50 microliters/min. As for the measurement times, an injection time (bonding) was 120 seconds and an elapsed time after stopping of injection (dissociation) was 120 seconds. In a bonding kinetic analysis experiment, sensor grams were analyzed using 1:1 Langmuir fitting model. The bonding property to HER2 was ensured with respect to every sample. In particular, strong bonding property was ensured with respect to scFv-PEG40, Af-PEG20, and Af-PEG40.

The Kd is the constant that tells how readily two partners part at equilibrium. On to MARSGLGGKGSC(PEG ME‑400MA) (also: ICG-Sulfo-OSu conjugated, site not given here, Conjugate with PEG 40k and ICG) [pe-PEG40 (PEG ME-400MA modified with ICG and the HER2-binding peptide of Sequence No. 3)], for which the equilibrium dissociation constant (Kd) stood at 3100 nM.
The result for MARSGLGGKGSC(PEG ME‑200MA) (also: ICG-Sulfo-OSu conjugated, site not given here, Conjugate with PEG 20k and ICG) [pe-PEG20 (PEG ME-200MA modified with ICG and the HER2-binding peptide of Sequence No. 3)] reads 2600 nM.
